# Assay results published in patent US20210340530A1 (INTELLIA THERAPEUTICS, published 2021).
# T1: WT1 (Wilms' tumor protein) peptide on HLA-A*02:01 (human)
# T1 peptide: RMFPNAPYL
# B1: TCR-G (TCR, V domains shown)
# Valpha: DQQVKQNSPSLSVQEGRISILNCDYTNSMFDYFLWYKKYPAEGPTFLISISSIKDKNEDGRFTVFLNKSAKHLSLHIVPSQPGDSAVYFCAARGQGNLIFGKGTKLSVKP
# Vbeta: EAGVAQSPRYKIIEKRQSVAFWCNPISGHATLYWYQQILGQGPKLLIQFQNNGVVDDSQLPKDRFSAERLKGVDSTLKIQPAKLEDSAVYLCASSLYRGEQYFGPGTRLTVT
# B2: TCR-H (TCR, V domains shown)
# Valpha: RKEVEQDPGPFNVPEGATVAFNCTYSNSASQSFFWYRQDCRKEPKLLMSVYSSGNEDGRFTAQLNRASQYISLLIRDSKLSDSATYLCVVKPDPGAGSYQLTFGKGTKLSVIP
# Vbeta: NAGVTQTPKFRVLKTGQSMTLLCAQDMNHEYMYWYRQDPGMGLRLIHYSVGEGTTAKGEVPDGYNVSRLKKQNFLLGLESAAPSQTSVYFCASRGYHRLNNEQFFGPGTRLTVL
# Target: T1, WT1 (Wilms' tumor protein) peptide on …
# Assay: killing
row,Binder,binding result
1,B1,no recognition
2,B2,no recognition
